Assay results from US20090123447A1, “COMPOSITIONS AND METHODS TO INHIBIT RNA VIRAL REPRODUCTION” (priority 2007, published 2009).

What was measured:
[1] = tested on: subgenomic HCV replicon of genotype 1b; test: microbe, parasite or virus in culture; type: cell-based, hepatitis C virus
Procedure: Huh7 human hepatoma cells were cultured in Dulbecco's modified Eagle medium (DMEM; Invitrogen, Carlsbad, Calif., USA) supplemented with 10% fetal bovine serum (FBS; Invitrogen), 100 units/ml of penicillin, and 100 μg/ml of streptomycin in a 5% CO2 incubator. SgPC2 cells are G418-selected, pooled Huh7 cell clones that support the continuous replication of a subgenomic HCV replicon of genotype 1b and [29] (GenBank Accession No. AJ242652) that carries a S11791 adaptive mutation within the NS5A region. SgPC2 cells were maintained in the above medium supplemented with 0.5 mg/ml G418 (Invitrogen). G418 was removed at least 1 day before cell treatments.

[2] = tested on: intracellular calcium concentration ([Ca^2+]i); test: [Ca^2+]i measurement with Indo-1 AM in SgPC2 cells; type: cell-based, human; conditions: 24 h, 2 mU/ml GO
Procedure: Briefly, on the day of the experiment, cells were washed in Krebs-Ringer phosphate buffer (KRPH; pH 7.4, containing 1.0 mM MgSO4, 1.3 mM CaCl2, 10 mM Hepes, 5 mM glucose, 125 mM NaCl, 5 mM KCl, and 10 mM sodium phosphate) and subsequently loaded with 10-20 μM Indo-1 AM (70 μl/coverslip; Molecular Probes, Inc., Eugene, Oreg., USA) containing 10 μM probenecid (Molecular Probes) for 30 min at 37° C. The attached cells were washed and bathed in KRPH/probenecid at 4° C. or room temperature until further analysis. Then, coverslips were individually submerged into KRPH and preequilibrated inside the […] fluorimeter (Hitachi) in darkness for 3 min, and [Ca^2+]i was monitored continuously at 37° C., with excitation at […] and emission at 400 and 450 nm. H2O2 and other agents were injected at different time points, as indicated under Results. [Ca^2+]i was calculated as described. Rmax was determined by adding 8-16 μM digitonin and Rmin with 10 mM ethylene glycol-bis(β-aminoethyl)-N,N,N'-tetraacetic acid (EGTA). […] The baseline, which represented unstimulated cells scanned over time, was plotted along with other measurements or subtracted from the other plots. Cells were serum-depleted, 1 day before the experiment, by incubating them overnight in DMEM plus 0.5% FBS. […] Then, CaCl2 was added before determining the Rmax for each run.

HCV NS5A = conditions: after 24 h of GO exposure
Procedure: Cells were sonicated in 2× Laemmli buffer and total protein samples were analyzed for HCV NS5A level by Western blot, using monoclonal anti-NS5A antibodies (Biodesign) and the corresponding horseradish peroxidase-conjugated secondary antibodies. Chemiluminescent images were processed with an ECL kit from Amersham Pharmacia and analyzed with the IS2000 gel imaging system (Kodak).

[3] = tested on: SgJFH1-Luc RNA (subgenomic JFH1 replicon); test: SgJFH1-Luc RNA replication in Huh7 cells, luciferase assay; type: cell-based, hepatitis C virus; conditions: Huh7 cells transfected with SgJFH1-Luc RNA
Procedure: (§1) For viral RNA transfection, JFH1, JFH1/GND, and pSGR-JFH1-Luc were linearized with XbaI and used to synthesize the corresponding positive-sense stranded HCV RNA, as previously described (68). Then, 5×10^6 Huh7 cells were rinsed with Opti-Mem (Invitrogen), mixed briefly with 10-20 μg of the in vitro transcribed RNA in 0.4 ml of Opti-Mem, and then electroporated at 260 volts and 950 μF. […] Medium was changed daily. For infection with HCV, medium collected from JFH1 RNA-transfected cells were cleared of cell debris, as described, and added to naïve Huh7 cells. Typically, 1:2 or 3:2 ratio of the virus-containing medium and fresh cell culture medium were used.
SgJFH1-Luc RNA replication was also monitored by firefly luciferase reporter assay, using a kit from Promega.
To investigate whether the HCV RNA replication is modulated by ROS, Huh7 cells were transfected with the SgJFH1-Luc RNA and treated with GO plus glucose.
After 24 and 48 hours, respectively, the cells were collected in PBS, centrifuged, lysed in the reporter lysis buffer (Promega), and analyzed for luciferase activity.

JFH1-transfected cells = test: ATP concentration as cytotoxicity measure in JFH1-transfected cells; conditions: JFH1-transfected cells, concentrations used
Procedure: Determination of ATP concentrations—ATP level was measured, using Somatic Cell ATP Assay kit from Sigma-Aldrich, as previously described (68). Protein level was determined with bicinchoninic acid kit (Pierce Biotechnology, Inc., Rockford, Ill.).
ATP concentration was measured to determine if the treatments were cytotoxic to the cells.

JFH1 HCV (genotype 2a) = type: cell-based, hepatitis C virus; conditions: JFH1-transfected cells, 0.25 mU/mL GO plus glucose
Procedure: as §1
JFH1/GND was used as the negative control. […]
Intracellular JFH1 HCV RNA content was also analyzed by qRT-PCR (Taqman), using ABI7300 real time PCR system and one step RT-PCR kit from Applied Biosystems. […] All samples were analyzed in duplicates or triplicates. […] The level of 18S rRNA was also analyzed, using manufacturer-optimized protocol, as the control.
To analyze the amount of the extracellular HCV RNA, medium from the cells were cleared by low-speed centrifugation and then, treated with RNaseA at room temperature. Then, the RNA samples were extracted, using Trizol LS Reagent (Invitrogen), and analyzed for HCV RNA content by qRT-PCR.

B1: catalase: exogenous catalase (Sigma-Aldrich) added to confirm the role of H2O2 (protein, UniProt P00432 2-527, looked up)
Catalase: ADNRDPASDQMKHWKEQRAAQKPDVLTTGGGNPVGDKLNSLTVGPRGPLLVQDVVFTDEMAHFDRERIPERVVHAKGAGAFGYFEVTHDITRYSKAKVFEHIGKRTPIAVRFSTVAGESGSADTVRDPRGFAVKFYTEDGNWDLVGNNTPIFFIRDALLFPSFIHSQKRNPQTHLKDPDMVWDFWSLRPESLHQVSFLFSDRGIPDGHRHMNGYGSHTFKLVNANGEAVYCKFHYKTDQGIKNLSVEDAARLAHEDPDYGLRDLFNAIATGNYPSWTLYIQVMTFSEAEIFPFNPFDLTKVWPHGDYPLIPVGKLVLNRNPVNYFAEVEQLAFDPSNMPPGIEPSPDKMLQGRLFAYPDTHRHRLGPNYLQIPVNCPYRARVANYQRDGPMCMMDNQGGAPNYYPNSFSAPEHQPSALEHRTHFSGDVQRFNSANDDNVTQVRTFYLKVLNEEQRKRLCENIAGHLKDAQLFIQKKAVKNFSDVHPEYGSRIQALLDKYNEEKPKNAVHTYVQHGSHLSAREKANL
[1]; SgPC2 cells, GO 24 h, 130-200 U/ml catalase or 2 μM BAPTA-AM
  effect on the suppression of HCV RNA by GO: attenuated the suppression by GO

B2: GO: enzyme which catalyzes the oxidation of β-D-glucose to D-glucono-1,5-lactone and hydrogen peroxide (protein, UniProt P13006 17-605, looked up)
Glucose oxidase: LPHYIRSNGIEASLLTDPKDVSGRTVDYIIAGGGLTGLTTAARLTENPNISVLVIESGSYESDRGPIIEDLNAYGDIFGSSVDHAYETVELATNNQTALIRSGNGLGGSTLVNGGTWTRPHKAQVDSWETVFGNEGWNWDNVAAYSLQAERARAPNAKQIAAGHYFNASCHGVNGTVHAGPRDTGDDYSPIVKALMSAVEDRGVPTKKDFGCGDPHGVSMFPNTLHEDQVRSDAAREWLLPNYQRPNLQVLTGQYVGKVLLSQNGTTPRAVGVEFGTHKGNTHNVYAKHEVLLAAGSAVSPTILEYSGIGMKSILEPLGIDTVVDLPVGLNLQDQTTATVRSRITSAGAGQGQAAWFATFNETFGDYSEKAHELLNTKLEQWAEEAVARGGFHNTTALLIQYENYRDWIVNHNVAYSELFLDTAGVASFDVWDLLPFTRGYVHILDKDPYLHHFAYDPQYFLNELDLLGQAAATQLARNISNSGAMQTYFAGETIPGDNLAYDADLSAWTEYIPYHFRPNYHGVGTCSMMPKEMGGVVDNAARVYGVQGLRVIDGSIPPTQMSSHVMTVFYAMALKISDAILEDYASMQ
[1]
  effect on HCV RNA level / replication: dose-dependently suppressed
[2]
  intracellular calcium concentration: 66.4 ± 10.7 nM
HCV NS5A
  NS5A protein level: decrease
[3]
  HCV RNA level by luciferase activity: decreased HCV RNA level
JFH1-transfected cells
  cytotoxicity (ATP concentration, cell survivability): did not cause any loss in cell survivability
JFH1 HCV (genotype 2a)
  decrease of intracellular HCV RNA content: 30±8%

B3: IFN-γ: interferon-γ, known to inhibit HCV RNA replication in Huh7 cells (protein, UniProt P01579 24-161, looked up)
Interferon gamma: QDPYVKEAENLKKYFNAGHSDVADNGTLFLGILKNWKEESDRKIMQSQIVSFYFKLFKNFKDDQSIQKSVETIKEDMNVKFFNSNKKKRDDFEKLTNYSVTDLNVQRKAIHELIQVMAELSPAAKTGKRKRSQMLFRG
[1]; 30 min treatment
  effect on HCV RNA replication after 30 min of treatment: no appreciable effect
[1]; SgPC2 cells, 24 h, 100 U/ml
  HCV RNA level, % of control level: about 15%
